From PMC4028237, “GmFT2a and GmFT5a Redundantly and Differentially Regulate Flowering through Interaction with and Upregulation of the bZIP Transcription Factor GmFDL19 in Soybean”

Biological target: T1, GmFDL19 (Glycine max, UniProt I1N8K2 1-320)
T1 sequence: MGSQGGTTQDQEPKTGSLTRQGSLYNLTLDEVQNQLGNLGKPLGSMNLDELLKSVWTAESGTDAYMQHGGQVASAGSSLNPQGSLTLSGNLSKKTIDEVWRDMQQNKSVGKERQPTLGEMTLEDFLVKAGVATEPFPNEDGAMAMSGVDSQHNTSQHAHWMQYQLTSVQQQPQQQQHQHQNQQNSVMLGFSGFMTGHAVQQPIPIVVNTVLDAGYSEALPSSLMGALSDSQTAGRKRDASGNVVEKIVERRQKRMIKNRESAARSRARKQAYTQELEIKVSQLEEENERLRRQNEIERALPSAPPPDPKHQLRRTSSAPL
Test: EMSA; Invitrogen EMSA kit E33075, 6% native TBE polyacrylamide gel, 200 V 45 min, SYBR Green stain; binding buffer, salt, pH and temperature not stated
Settings: protein: recombinant; tags: His (pET29b, NdeI/SalI); chain copies: 2; label: none (SYBR Green stain); blunt

B1: GmAP1aP-1280 CArG box (dsDNA)
DNA 1: GCAACCATCCATCCAAAAATAAGGCAAAAAAAATAAACAT
DNA 2: ATGTTTATTTTTTTTGCCTTATTTTTGGATGGATGGTTGC
B1: no binding.
